Test results: US20210246166A1 (Bayer, published 2021)
Bridge positions count the residues as written; N and C are the ends. Square brackets hold non-standard residues; d marks the D form. Ends that are not written are not given here. * marks the point of attachment. (Trifluoro)l/L = 5,5,5-trifluoro-DL-leucine; Oic = O=C(O)[C@@H]1C[C@@H]2CCCC[C@@H]2N1; Cyclobutylacetic = O=C(CC1CCC1)*; Hyp = O=C(O)[C@@H]1C[C@@H](O)CN1; NMeI = CC[C@H](C)[C@H](NC)C(=O)O; tBuAla = CC(C)(C)C[C@H](N)C(=O)O; Pen = CC(C)(S)[C@H](N)C(=O)O; NMeC = CN[C@@H](CS)C(=O)O; Orn = NCCC[C@H](N)C(=O)O; Lac = C[C@H](O)C(=O)O; Aib = CC(C)(N)C(=O)O; Ahx = NCCCCCC(=O)O; Sar = CNCC(=O)O

B1: Example 381: ((N-Me)G)-(Orn)-(Orn)-(Orn)-IC+SRS-((tBu)A)-PPI-(Pen)+IP-NH2 (peptide)
peptide: [Sar][Orn][Orn][Orn]ICSRS[tBuAla]PPI[Pen]IP-NH2
modifications: disulfide 6-14; N-terminus assumed
SMILES: CC[C@H](C)[C@H](NC(=O)[C@H](CCCN)NC(=O)[C@H](CCCN)NC(=O)[C@H](CCCN)NC(=O)CNC)C(=O)N[C@H]1CSSC(C)(C)[C@@H](C(=O)N[C@H](C(=O)N2CCC[C@H]2C(N)=O)[C@@H](C)CC)NC(=O)[C@H]([C@@H](C)CC)NC(=O)[C@@H]2CCCN2C(=O)[C@@H]2CCCN2C(=O)[C@H](CC(C)(C)C)NC(=O)[C@H](CO)NC(=O)[C@H](CCCNC(=N)N)NC(=O)[C@H](CO)NC1=O
B2: Example 387: (Lactic)-IC+SRS-((tBu)A)-PPIC+IPD-NH2 (peptide)
peptide: [Lac]ICSRS[tBuAla]PPICIPD-NH2
modifications: disulfide 3-11; N-terminus assumed
SMILES: CC[C@H](C)[C@H](NC(=O)[C@H](C)O)C(=O)N[C@H]1CSSC[C@@H](C(=O)N[C@H](C(=O)N2CCC[C@H]2C(=O)N[C@@H](CC(=O)O)C(N)=O)[C@@H](C)CC)NC(=O)[C@H]([C@@H](C)CC)NC(=O)[C@@H]2CCCN2C(=O)[C@@H]2CCCN2C(=O)[C@H](CC(C)(C)C)NC(=O)[C@H](CO)NC(=O)[C@H](CCCNC(=N)N)NC(=O)[C@H](CO)NC1=O
B3: Example 370: fIC+SRSLP-(Oic)-I-(Pen)+IP-NH2 (peptide)
peptide: [dF]ICSRSLP[Oic]I[Pen]IP-NH2
modifications: disulfide 3-11; N-terminus assumed
SMILES: CC[C@H](C)[C@H](NC(=O)[C@H](N)Cc1ccccc1)C(=O)N[C@H]1CSSC(C)(C)[C@@H](C(=O)N[C@H](C(=O)N2CCC[C@H]2C(N)=O)[C@@H](C)CC)NC(=O)[C@H]([C@@H](C)CC)NC(=O)[C@@H]2C[C@@H]3CCCC[C@@H]3N2C(=O)[C@@H]2CCCN2C(=O)[C@H](CC(C)C)NC(=O)[C@H](CO)NC(=O)[C@H](CCCNC(=N)N)NC(=O)[C@H](CO)NC1=O
B4: Example 382: (Cyclobutylacetic)-IC+SRS-((tBu)A)-PPI-((N-Me)C)+I-NH2 (peptide)
peptide: Cyclobutylacetic-ICSRS[tBuAla]PPI[NMeC]I-NH2
modifications: disulfide 2-10
SMILES: CC[C@H](C)[C@H](NC(=O)[C@@H]1CSSC[C@H](NC(=O)[C@@H](NC(=O)CC2CCC2)[C@@H](C)CC)C(=O)N[C@@H](CO)C(=O)N[C@@H](CCCNC(=N)N)C(=O)N[C@@H](CO)C(=O)N[C@@H](CC(C)(C)C)C(=O)N2CCC[C@H]2C(=O)N2CCC[C@H]2C(=O)N[C@@H]([C@@H](C)CC)C(=O)N1C)C(N)=O
B5: Example 383: (Ahx)-IC+SRSLP-(Oic)-IC+I-OH (peptide)
peptide: [Ahx]ICSRSLP[Oic]ICI-OH
modifications: disulfide 3-11; N-terminus assumed
SMILES: CC[C@H](C)[C@H](NC(=O)[C@@H]1CSSC[C@H](NC(=O)[C@@H](NC(=O)CCCCCN)[C@@H](C)CC)C(=O)N[C@@H](CO)C(=O)N[C@@H](CCCNC(=N)N)C(=O)N[C@@H](CO)C(=O)N[C@@H](CC(C)C)C(=O)N2CCC[C@H]2C(=O)N2[C@@H](C[C@@H]3CCCC[C@@H]32)C(=O)N[C@@H]([C@@H](C)CC)C(=O)N1)C(=O)O
B6: Example 378: PPIC+SRS-((tBu)A)-PPI-(Pen)+IP-NH2 (peptide)
peptide: PPICSRS[tBuAla]PPI[Pen]IP-NH2
modifications: disulfide 4-12; N-terminus assumed
SMILES: CC[C@H](C)[C@H](NC(=O)[C@@H]1CCCN1C(=O)[C@@H]1CCCN1)C(=O)N[C@H]1CSSC(C)(C)[C@@H](C(=O)N[C@H](C(=O)N2CCC[C@H]2C(N)=O)[C@@H](C)CC)NC(=O)[C@H]([C@@H](C)CC)NC(=O)[C@@H]2CCCN2C(=O)[C@@H]2CCCN2C(=O)[C@H](CC(C)(C)C)NC(=O)[C@H](CO)NC(=O)[C@H](CCCNC(=N)N)NC(=O)[C@H](CO)NC1=O
B7: Example 371: PPIC+SRS-((tBu)A)-PPI-(Pen)+I-NH2 (peptide)
peptide: PPICSRS[tBuAla]PPI[Pen]I-NH2
modifications: disulfide 4-12; N-terminus assumed
SMILES: CC[C@H](C)[C@H](NC(=O)[C@H]1NC(=O)[C@H]([C@@H](C)CC)NC(=O)[C@@H]2CCCN2C(=O)[C@@H]2CCCN2C(=O)[C@H](CC(C)(C)C)NC(=O)[C@H](CO)NC(=O)[C@H](CCCNC(=N)N)NC(=O)[C@H](CO)NC(=O)[C@@H](NC(=O)[C@@H](NC(=O)[C@@H]2CCCN2C(=O)[C@@H]2CCCN2)[C@@H](C)CC)CSSC1(C)C)C(N)=O
B8: Example 372: IC+SRSLP-(Oic)-I-(Pen)+IPE-NH2 (peptide)
peptide: ICSRSLP[Oic]I[Pen]IPE-NH2
modifications: disulfide 2-10; N-terminus assumed
SMILES: CC[C@H](C)[C@H](N)C(=O)N[C@H]1CSSC(C)(C)[C@@H](C(=O)N[C@H](C(=O)N2CCC[C@H]2C(=O)N[C@@H](CCC(=O)O)C(N)=O)[C@@H](C)CC)NC(=O)[C@H]([C@@H](C)CC)NC(=O)[C@@H]2C[C@@H]3CCCC[C@@H]3N2C(=O)[C@@H]2CCCN2C(=O)[C@H](CC(C)C)NC(=O)[C@H](CO)NC(=O)[C@H](CCCNC(=N)N)NC(=O)[C@H](CO)NC1=O
B9: Example 379: ((N-Me)I)-C+SRS-((tBu)A)-PPI-(Pen)+IP-NH2 (peptide)
peptide: [NMeI]CSRS[tBuAla]PPI[Pen]IP-NH2
modifications: disulfide 2-10; N-terminus assumed
SMILES: CC[C@H](C)[C@H](NC)C(=O)N[C@H]1CSSC(C)(C)[C@@H](C(=O)N[C@H](C(=O)N2CCC[C@H]2C(N)=O)[C@@H](C)CC)NC(=O)[C@H]([C@@H](C)CC)NC(=O)[C@@H]2CCCN2C(=O)[C@@H]2CCCN2C(=O)[C@H](CC(C)(C)C)NC(=O)[C@H](CO)NC(=O)[C@H](CCCNC(=N)N)NC(=O)[C@H](CO)NC1=O
B10: Example 377: IC+SRSLP-(Oic)-I-(Pen)+IPQ-NH2 (peptide)
peptide: ICSRSLP[Oic]I[Pen]IPQ-NH2
modifications: disulfide 2-10; N-terminus assumed
SMILES: CC[C@H](C)[C@H](N)C(=O)N[C@H]1CSSC(C)(C)[C@@H](C(=O)N[C@H](C(=O)N2CCC[C@H]2C(=O)N[C@@H](CCC(N)=O)C(N)=O)[C@@H](C)CC)NC(=O)[C@H]([C@@H](C)CC)NC(=O)[C@@H]2C[C@@H]3CCCC[C@@H]3N2C(=O)[C@@H]2CCCN2C(=O)[C@H](CC(C)C)NC(=O)[C@H](CO)NC(=O)[C@H](CCCNC(=N)N)NC(=O)[C@H](CO)NC1=O
B11: Example 373: (Aib)-IC+SRSLPPIC+IPD-NH2 (peptide)
peptide: [Aib]ICSRSLPPICIPD-NH2
modifications: disulfide 3-11; N-terminus assumed
SMILES: CC[C@H](C)[C@@H]1NC(=O)[C@@H]2CCCN2C(=O)[C@@H]2CCCN2C(=O)[C@H](CC(C)C)NC(=O)[C@H](CO)NC(=O)[C@H](CCCNC(=N)N)NC(=O)[C@H](CO)NC(=O)[C@@H](NC(=O)[C@@H](NC(=O)C(C)(C)N)[C@@H](C)CC)CSSC[C@@H](C(=O)N[C@H](C(=O)N2CCC[C@H]2C(=O)N[C@@H](CC(=O)O)C(N)=O)[C@@H](C)CC)NC1=O
B12: Example 380: GIC+SRSL-(Hyp)-PIC+IPD-OH (peptide)
peptide: GICSRSL[Hyp]PICIPD-OH
modifications: disulfide 3-11; N-terminus assumed
SMILES: CC[C@H](C)[C@H](NC(=O)CN)C(=O)N[C@H]1CSSC[C@@H](C(=O)N[C@H](C(=O)N2CCC[C@H]2C(=O)N[C@@H](CC(=O)O)C(=O)O)[C@@H](C)CC)NC(=O)[C@H]([C@@H](C)CC)NC(=O)[C@@H]2CCCN2C(=O)[C@@H]2C[C@@H](O)CN2C(=O)[C@H](CC(C)C)NC(=O)[C@H](CO)NC(=O)[C@H](CCCNC(=N)N)NC(=O)[C@H](CO)NC1=O
B13: Example 386: ((N-Me)G)-IC+SRSLPPIC+IpD-OH (peptide)
peptide: [Sar]ICSRSLPPICI[dP]D-OH
modifications: disulfide 3-11; N-terminus assumed
SMILES: CC[C@H](C)[C@H](NC(=O)CNC)C(=O)N[C@H]1CSSC[C@@H](C(=O)N[C@H](C(=O)N2CCC[C@@H]2C(=O)N[C@@H](CC(=O)O)C(=O)O)[C@@H](C)CC)NC(=O)[C@H]([C@@H](C)CC)NC(=O)[C@@H]2CCCN2C(=O)[C@@H]2CCCN2C(=O)[C@H](CC(C)C)NC(=O)[C@H](CO)NC(=O)[C@H](CCCNC(=N)N)NC(=O)[C@H](CO)NC1=O

Columns and labels:
[1] = molecular target: T1, recombinant human MASP1 active protease (amino acids 297-699, C-terminal His Tag) (human, UniProt P48740 297-699); assay: cell-based or functional assay
T1 sequence: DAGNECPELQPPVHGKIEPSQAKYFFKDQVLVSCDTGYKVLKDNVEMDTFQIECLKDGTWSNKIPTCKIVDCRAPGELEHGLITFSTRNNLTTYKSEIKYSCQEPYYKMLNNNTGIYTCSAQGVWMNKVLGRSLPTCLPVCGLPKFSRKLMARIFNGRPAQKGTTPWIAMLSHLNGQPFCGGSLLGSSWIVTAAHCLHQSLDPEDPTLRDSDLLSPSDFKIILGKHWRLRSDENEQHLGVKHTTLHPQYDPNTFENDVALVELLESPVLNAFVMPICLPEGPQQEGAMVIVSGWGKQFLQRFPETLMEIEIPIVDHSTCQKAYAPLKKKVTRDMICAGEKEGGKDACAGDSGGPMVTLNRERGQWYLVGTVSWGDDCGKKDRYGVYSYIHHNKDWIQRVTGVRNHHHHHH

[2] = molecular target: recombinant human MASP2 active protease (amino acids 297-686, C-terminal His Tag) (human, UniProt O00187 297-686); assay: cell-based or functional assay
recombinant human MASP2 active protease (amino acids 297-686, C-terminal His Tag), sequence (O00187 other isoform, or with tags, fused parts or gaps limits assumed): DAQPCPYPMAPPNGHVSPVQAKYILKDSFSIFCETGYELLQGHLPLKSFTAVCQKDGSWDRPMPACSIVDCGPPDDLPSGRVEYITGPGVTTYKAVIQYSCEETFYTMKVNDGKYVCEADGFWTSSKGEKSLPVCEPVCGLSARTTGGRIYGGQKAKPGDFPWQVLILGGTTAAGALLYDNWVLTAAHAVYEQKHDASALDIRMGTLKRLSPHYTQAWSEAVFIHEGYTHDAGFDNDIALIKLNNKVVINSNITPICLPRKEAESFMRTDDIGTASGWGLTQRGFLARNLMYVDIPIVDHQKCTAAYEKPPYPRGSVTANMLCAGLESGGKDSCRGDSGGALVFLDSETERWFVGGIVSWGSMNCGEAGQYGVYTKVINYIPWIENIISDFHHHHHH

| Binder | human MASP1 IC50 [1] [nM] | human MASP2 IC50 [2] [nM] |
| --- | --- | --- |
| B1 | 40 | 550 |
| B2 | 44 | 2200 |
| B3 | 35 | 93.5 |
| B4 | 40 | 41 |
| B5 | 40 | 800 |
| B6 | 38 | 1100 |
| B7 | 36 | 810 |
| AICSRSLPPIC[2‑Methyl‑D‑alloisoleucine]PD-NH2 (disulfide 3-11) [Example 374: AIC+SRSLPPIC+(2-Methyl-D-alloisoleucine)-PD-NH2] | 37 | 14000 |
| B8 | 36 | 660 |
| [Sar]ICSRSLP[Oic]I[Pen]IP-NH2 (disulfide 3-11; also: citrate salt) [Example 376: ((N-Me)G)-IC+SRSLP-(Oic)-I-(Pen)+IP-NH2 (Citrate)] | 1.1 | 35 |
| B9 | 39 | 360 |
| GICSRS[(Trifluoro)l/L]PPICIPD-OH (disulfide 3-11) [Example 384: GIC+SRS-((Trifluoro)l/L)-PPIC+IPD-OH] | 42 | 260 |
| B10 | 37 | 810 |
| B11 | 37 | 450 |
| B12 | 40 | 810 |
| B13 | 43 | 750 |
